Results: the supplement of paper PMC10126150
± gives the standard deviation of the averaged measurements.

System: ATP
Assay: switch fluorescence ratio, 500 uM ATP over buffer (Cy3 cluster intensity, sum of 5 cycles each) (fold (ratio)); higher = stronger signal-on switching upon ATP binding; sequences stand for … in TCGTCGGCAGCGTCAGATGTGTATAAGAGACAGTTTTTTTTTTTTTTTTTTTTTTTTT…TC
Settings: aptamer strand: ATP DNA aptamer (quencher-CACCTGGGGGAGTATTGCGGAGGAAGG + anchor), 100 nM annealed; ATP concentration: 500 uM
Outline: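 Imaging in selection buffer was followed by imaging after 15 min with 500 uM ATP at 22 °C, for Cy3-labelled switching-strand clusters annealed to 100 nM quencher-labelled ATP aptamer on a modified Illumina MiSeq flow-cell. Five of these buffer/ATP cycles ran, separated by NaOH stripping and re-annealing. The fluorescence ratio per cluster is summed target-cycle over summed buffer-cycle Cy3 intensity, averaged per switch-domain sequence; clusters outside 100-1000 RFU were removed.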
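Note: ATP exposure 15 min at 22 °C before imaging.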

Going from GTTTTGTGTT to GTTTTGTTCC, the switch fluorescence ratio rises from 0.992 ± 0.0047 to 1.019 ± 0.0041.

First: GTTTTTAATG
Second: GTTTTTACGA
The switch fluorescence ratio of the first is lower: 0.969 ± 0.011 for the first, 1.03 ± 0.027 for the second.

GTTTTTACGT and GTTTTTAGGT are within error of each other in switch fluorescence ratio: 1.12 ± 0.14 for the first, 0.98 ± 0.021 for the second.

GTTTTTAGTT and GTTTTTATGG are within error of each other in switch fluorescence ratio: 1.012 ± 0.0084 for the first, 0.997 ± 0.03 for the second.

GTTTTTATTG and GTTTTTGACT are within error of each other in switch fluorescence ratio: 0.992 ± 0.042 for the first, 0.964 ± 0.03 for the second.

GTTTTTGATA and GTTTTTGGGC are within error of each other in switch fluorescence ratio: 0.998 ± 0.02 for the first, 0.985 ± 0.026 for the second.

GTTTTTGGTC and GTTTTTTACG are within error of each other in switch fluorescence ratio: 0.974 ± 0.02 for the first, 0.998 ± 0.012 for the second.

GTTTTTTAGC and GTTTTTTAGT are within error of each other in switch fluorescence ratio: 0.991 ± 0.069 for the first, 0.988 ± 0.023 for the second.

GTTTTTTATA and GTTTTTTATC are within error of each other in switch fluorescence ratio: 0.995 ± 0.011 for the first, 1 ± 0.029 for the second.

GTTTTTTGAG and GTTTTTTGTC are within error of each other in switch fluorescence ratio: 1 ± 0.046 for the first, 1.03 ± 0.049 for the second.

TAAAAACCAT and TAAAAACTGG are within error of each other in switch fluorescence ratio: 1.01 ± 0.046 for the first, 0.975 ± 0.045 for the second.

TAAAAACTGT and TAAAAAGAAA are within error of each other in switch fluorescence ratio: 1.02 ± 0.034 for the first, 0.983 ± 0.043 for the second.

TAAAAAGATT and TAAAAAGCTC are within error of each other in switch fluorescence ratio: 0.988 ± 0.019 for the first, 1.01 ± 0.021 for the second.

TAAAAAGGAA and TAAAAAGGGC are within error of each other in switch fluorescence ratio: 0.964 ± 0.064 for the first, 0.992 ± 0.057 for the second.

Compared with TAAAAATAGG, TAAAACCAGG is higher in switch fluorescence ratio: 1 ± 0.022 for the first, 1.21 ± 0.082 for the second.

TAAAACCCTT and TAAAACGCGG are within error of each other in switch fluorescence ratio: 1.04 ± 0.076 for the first, 1.07 ± 0.048 for the second.

TAAAAGAAAA and TAAAAGCGGG are the same in switch fluorescence ratio: 1 ± 0.062 for the first, 1 ± 0.013 for the second.

TAAAAGGAAT and TAAAAGGATT are within error of each other in switch fluorescence ratio: 0.993 ± 0.018 for the first, 0.989 ± 0.042 for the second.

TAAAAGGCAT and TAAAAGGGGG are within error of each other in switch fluorescence ratio: 1.03 ± 0.028 for the first, 0.999 ± 0.034 for the second.

TAAAAGTGGG and TAAAAGTTAT are the same in switch fluorescence ratio: 1.009 ± 0.003 for the first, 1.01 ± 0.02 for the second.

TAAAATAAAT and TAAAATGTTG are within error of each other in switch fluorescence ratio: 1.016 ± 0.0018 for the first, 1.03 ± 0.033 for the second.

TAAACAGTTC and TAAACCGGGT are the same in switch fluorescence ratio: 1.05 ± 0.073 for the first, 1.05 ± 0.074 for the second.

TAAACTACAT and TAAACTATGG are within error of each other in switch fluorescence ratio: 1.006 ± 0.005 for the first, 1.02 ± 0.062 for the second.

TAAAGAAATG and TAAAGAAGGA are within error of each other in switch fluorescence ratio: 0.99 ± 0.033 for the first, 0.977 ± 0.042 for the second.

Going from TAAAGACGGG to TAAAGATAGG, the switch fluorescence ratio rises from 0.978 ± 0.013 to 1.026 ± 0.0036.

TAAAGCAGCT and TAAAGCAGGG are within error of each other in switch fluorescence ratio: 0.965 ± 0.04 for the first, 1.01 ± 0.023 for the second.

Compared with TAAAGCGAGC, TAAAGCTTCG is higher in switch fluorescence ratio: 1.03 ± 0.023 for the first, 1.27 ± 0.041 for the second.

TAAAGGAAAT and TAAAGGCAAG are within error of each other in switch fluorescence ratio: 1.09 ± 0.11 for the first, 1.02 ± 0.018 for the second.

TAAAGGGGGG and TAAAGGGTTG are within error of each other in switch fluorescence ratio: 1.01 ± 0.047 for the first, 1.02 ± 0.065 for the second.

TAAAGGTACA and TAAAGGTAGG are within error of each other in switch fluorescence ratio: 1.03 ± 0.018 for the first, 1.01 ± 0.041 for the second.

Compared with TAAAGGTCGG, TAAAGGTGTT is higher in switch fluorescence ratio: 0.967 ± 0.028 for the first, 1.09 ± 0.095 for the second.

TAAAGGTTGA and TAAAGTAAGT are the same in switch fluorescence ratio: 1.01 ± 0.012 for the first, 1.008 ± 0.01 for the second.

TAAAGTAATT and TAAAGTATAA are within error of each other in switch fluorescence ratio: 0.991 ± 0.039 for the first, 0.972 ± 0.026 for the second.

TAAAGTCATA and TAAAGTGAGC are within error of each other in switch fluorescence ratio: 1.01 ± 0.022 for the first, 1.028 ± 0.0051 for the second.

TAAAGTGGGC and TAAAGTGGT are within error of each other in switch fluorescence ratio: 1.04 ± 0.038 for the first, 0.986 ± 0.043 for the second.

TAAAGTTACG and TAAATACGGG are within error of each other in switch fluorescence ratio: 1.06 ± 0.032 for the first, 1.03 ± 0.016 for the second.

TAAATACTAT and TAAATAGTTT are within error of each other in switch fluorescence ratio: 1.01 ± 0.018 for the first, 0.993 ± 0.013 for the second.

TAAATCGGTG and TAAATTATTC are within error of each other in switch fluorescence ratio: 0.977 ± 0.039 for the first, 1.04 ± 0.037 for the second.

TAAATTGATT and TAAATTGTCG are within error of each other in switch fluorescence ratio: 1.02 ± 0.014 for the first, 0.994 ± 0.053 for the second.

First: TAAATTTCGA
Second: TAAATTTGAG
The switch fluorescence ratio of the first is higher: 1.04 ± 0.018 for the first, 0.991 ± 0.011 for the second.

First: TAAATTTTCT
Second: TAAATTTTGG
The switch fluorescence ratio of the first is higher: 1.06 ± 0.015 for the first, 1.008 ± 0.0096 for the second.

TAACAATTTC and TAACACCTCT are within error of each other in switch fluorescence ratio: 1.01 ± 0.02 for the first, 0.988 ± 0.068 for the second.

TAACACGTCG and TAACAGGGAG are within error of each other in switch fluorescence ratio: 0.9947 ± 0.0081 for the first, 1.012 ± 0.01 for the second.

Going from TAACAGGGGT to TAACAGGTGA, the switch fluorescence ratio rises from 1.31 ± 0.43 to 2.17 ± 0.085.

TAACAGTGGG and TAACATCTTC are within error of each other in switch fluorescence ratio: 1.02 ± 0.046 for the first, 1.01 ± 0.079 for the second.

TAACATGGCG and TAACATGTTC are within error of each other in switch fluorescence ratio: 0.959 ± 0.11 for the first, 0.995 ± 0.031 for the second.

First: TAACCAGTGG
Second: TAACCCGATT
The switch fluorescence ratio of the first is higher: 1.07 ± 0.021 for the first, 0.997 ± 0.029 for the second.

Going from TAACCGAGAT to TAACCTTAGC, the switch fluorescence ratio rises from 1.01 ± 0.043 to 1.29 ± 0.041.

First: TAACGACCGC
Second: TAACGCATCT
The switch fluorescence ratio of the first is higher: 1.24 ± 0.03 for the first, 1.149 ± 0.0052 for the second.

Going from TAACGGCCTC to TAACGGGAGG, the switch fluorescence ratio falls from 1.04 ± 0.023 to 0.998 ± 0.017.

First: TAACGGGTG
Second: TAACGGTGTG
The switch fluorescence ratio of the first is higher: 1.08 ± 0.018 for the first, 0.962 ± 0.017 for the second.

TAACGGTTTT and TAACGTGAGT are within error of each other in switch fluorescence ratio: 1.01 ± 0.033 for the first, 0.988 ± 0.016 for the second.

TAACTAGCGA and TAACTCGAAC are within error of each other in switch fluorescence ratio: 1.027 ± 0.0041 for the first, 1.04 ± 0.023 for the second.

TAACTTTTTT and TAAGAAAGGA are within error of each other in switch fluorescence ratio: 1.02 ± 0.042 for the first, 0.997 ± 0.048 for the second.

Going from TAAGAAGATG to TAAGAAGGGG, the switch fluorescence ratio rises from 0.9808 ± 0.0014 to 1.02 ± 0.023.

TAAGAAGGGT and TAAGAATGGG are within error of each other in switch fluorescence ratio: 0.991 ± 0.024 for the first, 0.9966 ± 0.0078 for the second.

Going from TAAGACGTTT to TAAGACTGAT, the switch fluorescence ratio rises from 1.0122 ± 0.00032 to 1.016 ± 0.0019.

TAAGAGCCGT and TAAGAGGCCA are the same in switch fluorescence ratio: 1.02 ± 0.012 for the first, 1.02 ± 0.017 for the second.

TAAGAGGGCA and TAAGAGGGGG are within error of each other in switch fluorescence ratio: 1.01 ± 0.014 for the first, 0.996 ± 0.052 for the second.

TAAGAGGGTA and TAAGATGGCT are within error of each other in switch fluorescence ratio: 0.974 ± 0.06 for the first, 1.11 ± 0.092 for the second.

TAAGATTTGT and TAAGATTTTA are within error of each other in switch fluorescence ratio: 0.99 ± 0.02 for the first, 1 ± 0.042 for the second.

First: TAAGCAGCGA
Second: TAAGCCGCGT
The switch fluorescence ratio of the first is higher: 1.045 ± 0.0036 for the first, 1.008 ± 0.0083 for the second.

TAAGCGGGTA and TAAGCGGGTC are within error of each other in switch fluorescence ratio: 1.02 ± 0.016 for the first, 1 ± 0.018 for the second.

TAAGCTAAGG and TAAGCTGCCA are within error of each other in switch fluorescence ratio: 1.04 ± 0.016 for the first, 1.02 ± 0.015 for the second.

TAAGCTGTCA and TAAGCTTCAT are within error of each other in switch fluorescence ratio: 0.965 ± 0.064 for the first, 1.04 ± 0.18 for the second.

TAAGGAAAGA and TAAGGAAAGT are within error of each other in switch fluorescence ratio: 1.08 ± 0.12 for the first, 0.991 ± 0.027 for the second.

TAAGGAAGGA and TAAGGAAGGG are within error of each other in switch fluorescence ratio: 0.9919 ± 0.0054 for the first, 1.004 ± 0.0075 for the second.

TAAGGAATGA and TAAGGAGAGG are within error of each other in switch fluorescence ratio: 0.993 ± 0.019 for the first, 1.01 ± 0.027 for the second.

TAAGGAGGGG and TAAGGATGTT are within error of each other in switch fluorescence ratio: 0.981 ± 0.024 for the first, 0.974 ± 0.026 for the second.

TAAGGCCACG and TAAGGCCCGG are within error of each other in switch fluorescence ratio: 0.9975 ± 0.0099 for the first, 1 ± 0.03 for the second.

TAAGGCCGGG and TAAGGCGGGC are within error of each other in switch fluorescence ratio: 0.9809 ± 0.0045 for the first, 0.988 ± 0.032 for the second.

TAAGGCTCGG and TAAGGCTGGG are within error of each other in switch fluorescence ratio: 0.994 ± 0.02 for the first, 0.962 ± 0.034 for the second.

TAAGGGAAAC and TAAGGGAATG are within error of each other in switch fluorescence ratio: 0.963 ± 0.013 for the first, 0.985 ± 0.061 for the second.

TAAGGGACAC and TAAGGGACGT are within error of each other in switch fluorescence ratio: 1.05 ± 0.017 for the first, 1.01 ± 0.034 for the second.

TAAGGGATAG and TAAGGGCGTT are within error of each other in switch fluorescence ratio: 0.985 ± 0.043 for the first, 0.994 ± 0.022 for the second.

TAAGGGGAAG and TAAGGGGATT are within error of each other in switch fluorescence ratio: 1.04 ± 0.015 for the first, 1.03 ± 0.047 for the second.

In the case of TAAGGGGGAG, the switch fluorescence ratio is reported as 0.999 ± 0.01.
